In US8349320:

Experiments:
[1] = biological target: mouse HVEM-Fc (mouse; human) (UniProt Q80WM9); test: flow cytometry competition, graded soluble gD against 2 µg/ml mHVEM:Fc on hLIGHT-EL4 cells (FIG. 3G)
[2] = biological target: mouse HVEM expressed on cells (mouse) (UniProt Q80WM9); test: flow cytometry competition, graded soluble gD against 1.4 µg/ml mBTLA-T on mHVEM-HEK293 cells (FIG. 3G)
Chain of mouse HVEM expressed on cells (mouse) (Q80WM9 39-275): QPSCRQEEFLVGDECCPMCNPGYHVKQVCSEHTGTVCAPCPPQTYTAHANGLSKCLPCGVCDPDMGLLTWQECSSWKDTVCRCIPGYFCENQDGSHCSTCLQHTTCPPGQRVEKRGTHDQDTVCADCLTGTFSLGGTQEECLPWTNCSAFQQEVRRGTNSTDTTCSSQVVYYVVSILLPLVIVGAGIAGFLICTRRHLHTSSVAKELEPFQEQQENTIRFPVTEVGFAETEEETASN

Chain of mouse HVEM-Fc (mouse; human) (Q80WM9 39-206 limits assumed): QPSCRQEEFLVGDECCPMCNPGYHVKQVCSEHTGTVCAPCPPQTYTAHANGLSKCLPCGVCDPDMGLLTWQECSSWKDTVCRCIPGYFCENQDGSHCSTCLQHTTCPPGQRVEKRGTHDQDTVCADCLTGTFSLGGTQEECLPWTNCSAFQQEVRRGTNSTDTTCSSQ

## purified recombinant soluble gD (gD-1Δ290-299)
[1]
  Kd: 250 nM
[2]
  Kd: 250 nM
